assay: yeast display, Sf9 membrane polyspecificity reagent, FACS + sequencing; frameworks hold sequencing errors
Summary of the method: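 After 36–48 hours of galactose induction, yeast (Saccharomyces cerevisiae BJ5465) displaying a synthetic nanobody library were stained at 4 °C for 1 hour with 10% biotinylated, detergent-solubilized Sf9 membrane reagent. Streptavidin microbeads enriched the stained cells before FACS sorting into low and high (top ~1%) gates on anti-HA and streptavidin fluorescence. Each clone's polyreactivity label reflects its gate of origin.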

Row | Sequence | polyreactivity (PSR sort gate)
1 | QVQLVESGGGLVQAGGSLRLSCAASGFTFYRNAMGWYRQAPGKERELVAAISSRGGSTYYADSVKGRFTISRDNAKNTVYLQLNSMKPEDNAVYYCAAYGNYNEYDYGGQGTQVTVSS | high polyreactivity
2 | QVQLVESGGGLVQAGGSLRLSCAPSGRTFVWNAMGWYRQAPVKERELVAAITSGGSTNYADSVKGRFTISRDNAKNTVYLQMNSLKAEDTAVYYCAAYPDYYEDDYWGQGTQVTVSS | low polyreactivity
3 | QVQLVESGGGLVQAGGSLRLSCAASGYIFYRYTMGWYRQAPGKERELVAAISFRGGTTYYADSVKGRFTISRDNAKNTVYLQMNSLKPEDTAVYYCAARYGYYTSDYKYYYWGQGTQVTVSS | high polyreactivity
4 | QVQLVESGGGLLQAGGSLRISCAASGSILFLYDMGWYRQAPGKERELVAAIRWSGGGTYYADSVKGRFTISRDNAKNTVYLQMNSLKPEDTAVYYCAAAARYPFDVTYYYWGQGTQVTVSS | high polyreactivity
5 | QVQLVESGGGLVQAGASLRLSCAASGRISYYYTMGWYRQAPGKERELVAAISWSGGTTYYADSVKGRFTISRDNAKNTVYLQMNSLKPDDTAVYYCAAREYYTDVHGTRRYDYWGQGTQVTVSS | low polyreactivity
6 | QFQLVDSGGGLVQAGGSLRLSCAASGRNYRLYAMGWSRQAPRKERELVAAITRGGRTNYAYSVKGRFTISRDNAMNTVYLQMNSLKPEDTAVYYCAARFVERDTDYYYWGQGTQVTVSS | low polyreactivity
7 | QVQLVESGGGLVQAGGSLRLSCAATGSIFSSNAMGWYRQAPGKERELVAAIDYSGGRTYYADSVKGRFTISRDYEKNTVYLQMNSLKPEDTAVYYCAKLIPVHSRYDFWGQGTQVTVSS | low polyreactivity
8 | QVLLVESGGGLVQAGGSLRLSCAASGFIFRPNAMGWYRQAPGKERELVARITYRGGSTYYADSVKGRFTISRDNAKKTVYLKMNSLKPEDTAVYYCAARAVTYAGYTYNYWGQGTQVTVSS | high polyreactivity
9 | QVQLVESGGGLVQAGGSLRLSCAPSGSTFTINVMGWYRQAPGKERELVAAINGGGRTNYADSVKGRFTISRDNAKNTVYLQINSLIPEDTAVYYCAADGLSNVRQMDYWGQGTQVTVSS | low polyreactivity
10 | QVQLVESGGGLVQAGGSLRLSCAASGFTIYPYAMGWYRQAPGKERELVAAISQRGGRTSYADSVKGRFTISRDNAKNTVYLQMNSLKPEDTAVYYCAARFWATEGYWGQGTQVTVSS | high polyreactivity
11 | QGQLVESGGRLVQAGGSLRLSCAASGFTFDSYAMAWYRQAPGKERELVASISSSGSTNYADSVKGRFTISRDNAKNTVYLQMNSLKPEDTAVYYCAAVSRYPFIYEYWGQGTQVTVSS | low polyreactivity
12 | QVQLVESGGGLVQAGGSLRLSCAASGSIVRYYAMGWYSQAPGKERELVAAISYRGGTTYYADSVKGRFTISRDNAKNTVYLQMNSLKPEDTAVYYCAAGYKAAGWTQYGYWGQGTPVTVSS | high polyreactivity
13 | QVQLVESGGGLVQAGGSLRLSFAASGRTFGKNAMGWYRQAPGKEREFVAAITSRGGSTYYADSVKGRFTISRDNAKNTVYLQMNSLKPEDTAVYYCNREYKRPSQRTEHYYWGQGTQVTVSS | low polyreactivity
14 | QVQLVDSGGGLVQAGGSLRLSCAASGYTFDWYNRGWYRQAPGKERELVAAISASGVRTYYADSVKGRFTISRDNAKNTVYFQMNSLKPEDTAVYYCNRVYSTSRITQYEFDYWGQGTQVTVSS | low polyreactivity
15 | QVQLVESGGGLVQAGGSLRLSCAASGSTFTNYAMGWYRQAPGKERELVAAITSVGSTYYADSVKGRFTISRDNAKNTVYLQMNSLKPEDTAVYYCNVVYRDQYNYWGQGTQVTVSS | low polyreactivity
16 | QVQLVESGGGLVQAGGSLRLSCAASGRNFIVNAMGWYRQAHGKEREFVAAITSRGGITYYADSVKGRFTISRDNAKNTVYLQMNSLKPEDTAVYYCAAGYITWGSGNWVVTPYDYWGQGTQVTVSS | high polyreactivity
17 | QVQLVESGGGLVQAGGSLRVSCAASGSIFHENAMGWYRPAPGKEWELVAAIDQTGSTYADSVKGRFTISRDNAKNTVYLQMNSLKPEDTAVYYCAKGDVSLDYPSLEFDYWGQGTQVTVSS | low polyreactivity
18 | QVQLVESGGGLVQAGGSLRLSCAASGSTFRYYARGWYRPAPGKERELVAAITRSGGSTYYADSVKGRFTISRDNAKNTVYLQMNSLKPEDTAVYYCAARWAYPHKTYGTEQTEYDYWGQGTQVTVSS | high polyreactivity
19 | QVQLVDSGGGLVQAGGSLRLSCAASGSTFRVNAMGWYRQAPGKERELGAAISGSGSGTYYADSVKGRFTISRDNAKNTVYLLMNSLKPEDTAVYYCAKVPKSRGYVGGMDYWGQGTQVTVSS | low polyreactivity
20 | QVQLVESGGGLVQAGGSLSLSCAASGSIFASYVMGWYRPAPGKEREMVAGIDTSGGSTFYADSVKGRFTISRDNAKNTVYLQMNSLKPEDTAVYYCAADTWYRGRWEFDYWGQGTQVTVSS | low polyreactivity
21 | QVQLVESGGGLVQAGGSLRLSCAASGRTFPFNAMGWYRQPPGKERELVAVINSGGSTYYADSVKGRFTISRDNAKNTVYLQMNSLKPEDTAVYYCYVKRYLWFTDLLYDYWGQGTQVTVSS | high polyreactivity
22 | QVQLVESGGGLVQAGGSLRLSCAASGSIFPWNTMGWYRQAPGKERELVARISTSGASTYYADSVKGRFTISRDNAKNTVYLQMNSLKPEDTAVYYCAKVRHYGGRSWWYYYWGQGTQVTVSS | high polyreactivity

Row | Sequence | polyreactivity (PSR sort gate)
23 | QVQLVESGGGLVQAGGSLRLSCAASGSFFVDDAMGWYRQAPGKERELVATISSDVSTYYADSVKGRFTISRDNAKTTVYIQMNSLKPEDTAVYYCAATVSLHWAYSFSLYLEDDYWGQATQVTVSS | low polyreactivity
24 | QVQLVESGGGLVQAGGSLRLSCAASGSTFVRNVMGWYRQAPGKERELVARISWSGTGTYYADSVKGRFTISRDNAKNTVYLQMNSLKPEDTAVYYCAARSTVYISSDYWGQGTQVTVSS | low polyreactivity
25 | QVQLVESGGGLVQAGGSLRLSCAASGRTFHGYAMGWYRQAPGKERELVAAINWRGGSTYYADSVKGRFTISRDNAKNTVYLQMNSLKPEDTAVYYCNKRQYSARVSRSYDYWGQGTQVTVSS | high polyreactivity
26 | QVQLVESGGGLVQARGSLRLSCAASGSISVYNAMGWYRQAPGKERELVAAISWSGGRTSYADSVKGRFTISRDNAKNTVYLQMNSLKPEDTAVYYCAADELTVLWDEDYWGQGTQVTVSS | low polyreactivity
27 | QVQLVESGGGLVQAGGSLRLSCAASGLTLGHNAMGWYRQAPGKERELVAAITNYADSVKGRFTISRDNAKNTVYLQMNSLKPEDTAVYYCAADWWRVEMDYWGQGTQVTVSS | low polyreactivity
28 | QVQLVESGGGLVQAGGSLRLSCAASGSTFWSYTMGGYRQAPGKERELVAAISRSGGSTYYADSVKGRFTISRDNAKNTVYLQKNSLKPEDTAVYYCAASDRYGSRYYYWGQGTQVTVSS | high polyreactivity
29 | QVQLVESGGGLVQAGGSLRLSCAASGYTFGTYAMGWYRQAPGKERELVATISIGGITYYADSVKGRFTISRDNAKNTVYLQMNSLIPEDTAVYYCAKAVTDPTSRSDPTGDDYWGQGTQVTVSS | low polyreactivity
30 | QVQLVESGGGLFQAGGSLRISFAASGRIFGVNAMGWYRQAPGTQSELVAAISAGGGNTYYADSVKGRFTISRDNAKNTVYLQMNRLKPEDTAVYFCNVQRSLRMDFWGQGTQVTVSS | high polyreactivity
31 | QVQLVESGGGLVQAGGSLRLSCPASGFIFRRYVMGWYRQSPGKERELVAAISKSAVNTYYADSVKGRFTISRDNAKNTVYLQMNSLIPEDTEVYYCNKYGYKGGVGYDYWGQGTQVTVSS | high polyreactivity
32 | QVQLVESGGGLVQAGGSLRLSCAASGFIFVYNAMGWYRQAPGKEREFVASITWSGGRTYYADSVKGRFTISRDNAKNTVYLLMNILKPEDTAVYYCATKYPNSQGRRYDYWGKGTQVTVSS | low polyreactivity
33 | QDQLVESGGCLVQAGGSLRLSCAASGSTFDTNSMGWSRQAPGKERELVAAISGSGVRTYYADSVKGRFSISRDNAKITVYLQMNRLNPEDTAVYYCAARGSRRGTWYDYWGQCTQVTVSS | high polyreactivity
34 | QVQLVESGGGLVQAGGSLRLSCADSGSIFKYYVMGWYRQAPGKERELVADITSGGSTKYADSVKGRFTISRDNAKNTVYLQMNSLKPADTAVYYCAASWWYEIFDYWGQGTQVTVSS | low polyreactivity
35 | QVQLVESGGGLVQAGGSLRLSCAASGSIFVTNGMGWYRQAPGKERELVAVISWGGGNTYYADSVKGRFTISRDNAKNTVYLQMNSLKPEDTAVYYCAVDIWGGEGYDSWGQGTQVTVSS | low polyreactivity
36 | KVQLVESGGGLVQAGGSLRLSCAASGIIFGRYAMGWYRQAPGKERELVATISRSGGTTYYADSVKGRFTISRDNAKNTVYLQMNSLKPEDTAVYYCAARWTSRYDYWGQGTQVTVSS | high polyreactivity
37 | QVQLVESGGGLVQAGGSLRLSCAASGSIFGRNAMGWYRQAPGKERELVAAISFIGGSTYYADSVKGRFTISRDNAKNTVYLQMNSLKPEDTAVYYCATSVFYYGSLYGYWGQGTQVTVSS | high polyreactivity
38 | QFQLVESGGGLDQAGGSLRLSCAASGFIFSWYAMGWYRQAPGKERELVAAINWSGGSTYYADSVKGRFTISRDNAKNTVYLQMNSLKPEDTAVYYCAAVRQSQFEYWGQGTQVTVSS | high polyreactivity
39 | QVQLGESGGGLVQAGGSLRLSCAASGSTFESYAMGWYRPAPGKEWELVAAINGGGRTYYADSVKGRFTISRDTAKNTVYLQMNSLNPEDTAVYYCAAEYRRGYYWPWGWEYYWGQGTQVTVSS | low polyreactivity
40 | QVQLVESGGGLVQAGGSLRLSCSASGRIFPFNDMGWYRQAPGKEREFVADISDNGGSTYADSVKGRFTISRDNAKNTVYLQMNSLKPEDTAVYYCAADLLDISSYDGMDYWGQGTQVTVSS | low polyreactivity
41 | QVQLVESGGGLVQAGGSLRLSCAASGSTFPDYAMGWYRQAPGKDRELVAAISGDSDDTYYADSVKGRFTISRDNAKNTVYLQMNSLKPEDTAVYYCAARRGRAVYSVAYDYWGQGTQVTVSS | high polyreactivity
42 | QVQLVESGGGIVQAGGSLRLSCAASGRIFATYAMGWYRQAPGKERELVAAIRSDGNTKYADSVKGRFTISRDNAKNTVYLQMNSLKPEDTAVYYCAAYARYAGVLYDYWGQGTQVTVSS | high polyreactivity
43 | QVQLVESGGGLVQAGGSLRLSCAASGRIFDGYAMGWYRQAPGKERELVASISYDGGSTYYADSVQGRFTISRDNAKNTVYLQMNSLKPEDTAVYYCAAVYRRRSYTFYYWGQGTQVTVSS | high polyreactivity

Reference: the nanobody polyreactivity screen of Harvey et al. (2022)
